Test [1] addresses SARS-CoV-2 spike (D614) on pseudovirus (SARS-CoV-2, UniProt P0DTC2 14-1273). Description: cell-based or functional assay.
Test [2] has as its target T1, SARS-CoV-RBD-hFc (SARS-CoV, UniProt P59594 306-527).
T1 construct: domain: RBD
Kind of test: phage ELISA, antigen coated at 5μg/ml, anti-M13 HRP detection. Background: In an ELISA, binding on a coated surface is turned into a signal by an enzyme label.

We go through 2 molecules from patent CN112062838A (UNIV NANJING MEDICAL, dated 2020).

Values joined by “and” are separate entries in the source; they are usually repeats but may differ in a detail not shown here. Identical values can stand only once.

B1: 4D8-hFc重组蛋白 (单域抗体4D8, purified) (Fc fusion, not shown: a dimerising Fc or GST)
chain: QVQLVQSGGGLVQPGGSLRLSCAASDFDFYDYEMSWVRQAPGKALEWIGEIHHSGSTYYNPSLKSRVTISRDNSKNTLYLQMNTLRAEDTAIYYCVKDFVGADGPFVFDYWGQGTLVTVSS
Consider B1, for which the “伪病毒中和 IC50 (Luciferase活性, CHO-ACE2细胞)” value in test [1] was 1.13 μg/ml and 15 nM.

B2: 4D8克隆 (4D8噬菌体, phage-displayed single-domain antibody clone) (VHH)
VHH: B1 chain
notes: also called 富集克隆4D8
In the case of B2, the binding result in test [2] was “no binding”.
